Measurements taken from article PMC5951830, “CO2-sensitive tRNA modification associated with human mitochondrial disease” (Nature Communications, 2018).

Assays:
purified protein [1] = substrate: O=C(O)O; experiment: purified protein; conditions: YRDC alone, Tricine-NaOH pH 8.5, 10 mM MgCl2, ATP, L-Thr, 37 °C, bicarbonate 10-80 mM
purified protein [2] = substrate: Nc1ncnc2c1ncn2[C@@H]1O[C@H](COP(=O)(O)OP(=O)(O)OP(=O)(O)O)[C@@H](O)[C@H]1O; experiment: purified protein; format: biochemical, Homo sapiens; conditions: YRDC alone, Tricine-NaOH pH 8.5, 10 mM MgCl2, [14C]L-Thr, NaHCO3, 37 °C, ATP 0.1-0.8 mM

B1: YRDC (Homo sapiens) (protein)
chain: SVGLSEGPAGSRSGRLFRPPSPAPAAPGARLLRLPGSGAVQAASPERAGWTEALRAAVAELRAGAVVAVPTDTLYGLACAASCSAALRAVYRLKGRSEAKPLAVCLGRVADVYRYCRVRVPEGLLKDLLPGPVTLVMERSEELNKDLNPFTPLVGIRIPDHAFMQDLAQMFEGPLALTSANLSSQASSLNVEEFQDLWPQLSLVIDGGQIGDGQSPECRLGSTVVDLSVPGKFGIIRPGCALESTTAILQQKYGLLPSHASYL
notes: recombinant from E. coli Rosetta(DE3), His6-SUMO tag removed
Km (purified protein [1]): 13 mM | Km (purified protein [2]): 0.17 ± 0.22 mM | kcat (purified protein [2]): (3.9 ± 2.23) × 10^-2 s^-1
